Data on two molecules can be found in paper PMC7326950, “Hypoxanthine-Guanine Phosphoribosyltransferase/adenylate Kinase From Zobellia galactanivorans: A Bifunctional Catalyst for the Synthesis of Nucleoside-5′-Mono-, Di- and Triphosphates” (Frontiers in Bioengineering and Biotechnology, 2020).

The target of one data set is T1, ZgHGPRT/AMPK (Zobellia galactanivorans, UniProt G0LC40).
T1 construct: gene adkA; homodimer
The data set can be described thus: steady-state kinetics, HPLC of IMP formation, non-linear regression. The note with it: HGPRT domain; apparent substrate inhibition at high Hyp; PRPP fixed at 5 mM; varied Hyp 0.5–17.2 mM; Mg2+. It counts as biochemical. From the text: (§1) steady-state kinetics, HPLC of IMP formation, non-linear regression on ZgHGPRT/AMPK

Substrate in the data set “purified protein”: Nc1ncnc2c1ncn2[C@@H]1O[C@H](COP(=O)(O)O)[C@@H](O)[C@H]1O
The data set can be described thus: purified protein. The note with it: AMPK domain; apparent; ATP fixed at 3.2 mM; varied AMP 0.5–10 mM; Mg2+.

Data set [1] concerns the molecule itself. The data set can be described thus: AUC; sedimentation velocity, 20 mM Tris-HCl pH 8, 20°C, 50,000 x g, profiles at 292 nm, c(s) by SEDFIT; protein 0.4 mg/ml.
Substrate in data set [2]: O=c1[nH]cnc2nc[nH]c12
The data set can be described thus: steady-state kinetics, HPLC of IMP formation, non-linear regression. It counts as biochemical, Zobellia galactanivorans. The conditions noted are these: HGPRT domain; apparent; PRPP fixed at 5 mM; varied Hyp 0.5–17.2 mM; Mg2+.
Text: as §1

Substrate in data set [3]: O=P(O)(O)OC[C@H]1O[C@H](OP(=O)(O)OP(=O)(O)O)[C@H](O)[C@@H]1O
The data set is described as above. The conditions noted are these: HGPRT domain; apparent; Hyp fixed at 5 mM; varied PRPP 0.5–17.2 mM; Mg2+. It counts as biochemical, Zobellia galactanivorans.
Text: as §1

Substrate in data set [4]: Nc1ncnc2c1ncn2[C@@H]1O[C@H](COP(=O)(O)OP(=O)(O)OP(=O)(O)O)[C@@H](O)[C@H]1O
The data set can be described thus: steady-state kinetics, HPLC of ADP formation, non-linear regression. The data set is classed as biochemical, Zobellia galactanivorans. The conditions noted are these: AMPK domain; apparent; AMP fixed at 3.2 mM; varied ATP 0.5–10 mM; Mg2+. From the text:
steady-state kinetics, HPLC of ADP formation, non-linear regression on ZgHGPRT/AMPK

Consider `O=c1[nH]cnc2nc[nH]c12` [compound 1, hypoxanthine], for which the “Value with variable substrate / Hyp^a” value at ZgHGPRT/AMPK stood at 11.12 ± 1.02 mM.

B1: hypoxanthine-guanine phosphoribosyltransferase (HGPRT)/adenylate kinase (AMPK) from Zobellia galactanivorans (enzyme, UniProt G0LC40 1-368, looked up)
chain: MIKLHDKHFKPFLSEAQIKAAVKKVAEQVAADYKDETPIFVGVLNGAFMFISDFLKEYQYPCEVSFVKLSSYQGLTSTGIVETLLDVSENIEGRSVIILEDIIDTGRTLKKLVHLFSKANVKEFRVASLFYKSEVYNGEYTIDYVGIDIPDKFIVGYGLDYNELGRNLREVYQLNQKHMINLVLFGKPGAGKGTQAEFLKDKYNLKHISTGDLFRFNMKNDTELGKLAKSYIDRGDLVPDEVTIKMLQDAVEKNPEASGFIFDGFPRTVAQAEALDKFLATKDMKIDATIALEANDEVLIQRLLERGKVSGRSDDQDESKIRNRFDEYNEKTAPLKDFYENQGKFHSVNGIGAIDEITHRLGKVIEEL
notes: gene from GenScript cloned NheI-BamHI into pET28b(+); The vector encodes a thrombin cleavage site between the His6 tag and the enzyme; no cleavage is described, and the measured mass is compared with that of the His6-tagged protein (43.77 kDa); also called ZgHGPRT/AMPK; HGPRT/AMPK; source: E. coli BL21(DE3), purified (HisTrap FF, Superdex 200); not shown: His6, N-terminal, kept
The term Km denotes the substrate concentration at which the rate is half of its maximum. The kcat is the number of substrate molecules converted per active site and unit of time at saturation. For orientation: kcat/Km means the turnover number divided by the Michaelis constant. As usually defined, the stoichiometry N is the number of molecules, sites or subunits per partner or assembly. On to B1, for which the Michaelis constant (Km) in the data set “purified protein” turned out to be 8.02 ± 0.40 mM; in data set [2] it was 1.01 ± 0.05 mM; in data set [3], 6.77 ± 0.41 mM; in data set [4] it was 0.77 ± 0.04 mM. The kcat in the data set “purified protein” turned out to be 0.16 s⁻¹; in data set [2], 1.11 ± 0.06 s⁻¹; in data set [3], 2.82 ± 0.21 s⁻¹; in data set [4], 0.07 ± 0.003 s⁻¹. In addition, the kcat/Km in the data set “purified protein” was found to be 20 M⁻¹ s⁻¹; in data set [2] it was 1100 M⁻¹ s⁻¹; in data set [3], 420 M⁻¹ s⁻¹; in data set [4], 100 M⁻¹ s⁻¹. For the same molecule, the “stoichiometry N” value in data set [1] was determined as 2.
